The values below come from PMC12713080.

Assay [1] addresses copper (Cu pull-down beads). Briefly: copper pull-down, IB quantified. The settings on record: HEK293T cell lysate; mean+/-SD, n = 3; parent: est. 1.9; read off a plot.
The target in assay [2] is copper (Cu-charged NTA beads). Briefly: NTA-copper bead pull-down of purified protein, IB quantified. The conditions noted are these: 0.5 h at 4 °C; washed with NETN buffer (20 mm Tris-HCl (PH 8.0), 300 mm NaCl, 0.5% NP-40, 1 mm EDTA) 5 times; mean+/-SD, n = 3; parent: est. 2.4; read off a plot.

As to HA‐TAK1 (from UniProt O43318) H154A, in assay [1], the response was determined as 1.

In the case of “HA‐TAK1 (from UniProt O43318) H154A; M196A”, the response in assay [1] amounted to 0.95.

As to TAK1-N H154A; M196A, the response in assay [2] worked out at 0.4. In the case of HA‐TAK1 (from UniProt O43318) M196A, the response in assay [1] is 0.8.
